Measured values published in JP2011512120A (dated 2011).

Tests used:
[1] = target: 酵母由来組換えhGM−CSF(Leukine Berlex) (human); assay: SPR (Biacore), antibody captured through protein G on the chip, rhGM-CSF injected
[2] = target: 大腸菌由来組換えhGM−CSF(Peprotech) (human); assay: as above

Binder	Kd [1]	Kd [2]
EV1007 (antibody, V domains shown) VH: QVHLVQSGSELKKPGASVKVSCKASGYSFSRYGIKWVRQAPGQGLEWMGWINTRSGVPAYAQGFTGRFVFSLDTSVDTAFLEISSLKTEDTGIYYCATRPPRFYDKTEYWEDGFDVWGRGTLVTVSS VL: QSVLTQPPSASGTPGQSVNISCSGSSSNIGNSYVYWYQQLPGTAPKLLIYRNNRRPSGVPDRFSGSKSDTSASLAISGLRSEDEADYYCATWDDSLSGRLFGGGTKLTVL	1.2 nM	0.93 nM
EV1018 (antibody, V domains shown) VH: QVQLVESGGGMVQPGMPLRLSCVASGFTFSSYGMHWVRQAPGKGLEWVALTYHHGNRKFYADSVRGRFTISRDNSNNTLYLQMTSLRAEDTAVYFCARESMGAINDNWGQGTLVIVSS VL: QSALTQETSVSGTVGQKVTLSCIGNNNNIGSHAVGWYQQISRGAPKMVLFGRSPPSGVPDRFSGSKSGTTASLIISGLQPEDEADYYCSTWDSSLSAVVFGGGTKLTVLR	0.23 nM	0.15 nM
EV1019 (antibody, V domains shown) VH: QAQLVESGGGVVKPGGSLRLSCISSKFTFSSHAMHWVRQAPGKGLEWVAVIWHDGSKKYYADSVKGRFSVSRDNSKNTLFLQMDSLRAEDTAVYFCGKEWVGGTCDSWGQGTLVIVSS VL: QPALTQEASVSGTVGQTVTLLCSGNSSNIGSYAVGWYQQISRGAPKIVVFGKSPASGIPDRFSGSKSGTTASLLVSGLQPEDEADYYCSTWDSRLSAVLFGGGTKLTVLR	0.36 nM	0.15 nM
EV1003 (antibody, V domains shown) VH: LVQLVQSEAEVKKPGASVRISCRTSGYIFPTFALHWVRQAPGQSLEWVGSINTASGKTKFSTKFQDRLTLSSNTSATTVYMDLSGLTLDDTALYYCARDRFQNIMATILDVWGQGTLVTVSS VL: DIVLTQSPGTLSLSPGERVTVSCRASHRVSSNYLAWYQQRPGQSPRLLIFGASNRATGVPDRFSGSGSGTDFALTISRLEPDDFAVYYCQQYASSPVTFGGGTKLEIK	0.23 nM	0.095 nM
